Assay results taken from patent US12551573B2, “Compositions and methods for the targeting of PCSK9” (Scribe Therapeutics Inc., priority 2022, dated 2026).

Assays:
6.7/6.8 target dsDNA [1] = assay: In vitro cleavage assay of CasX 491 RNPs: cleavage rate (kcleave); assay type: biochemical; conditions: CasX RNP, 20-fold excess RNP
Procedure: (§1) Double-stranded DNA (dsDNA) targets were formed by mixing the oligos in a 1:1 ratio in 1× cleavage buffer (20 mM Tris HCl PH 7.5, 150 mM NaCl, 1 mM TCEP, 5% glycerol, 10 mM MgCl2), following by heating to 95° C. for 10 minutes, and then allowing the solution to cool to room temperature. CasX ribonucleoproteins (RNPs) were reconstituted with CasX 491 and the indicated gRNAs at a final concentration of 1 μM with 1.2-fold excess of the indicated gRNA in 1x cleavage buffer. RNPs were allowed to form at 37° C. for 10 minutes.
The effects of various structural and chemical modifications to the gRNA scaffold on the cleavage rate of CasX 491 RNPs were determined. Cleavage reactions were prepared with final RNP concentrations of 200 nM and final target concentrations of 10 nM, and reactions were carried out at 16° C. and initiated by the addition of the labeled target DNA substrate (Table 27). Aliquots of reactions were taken at 0.25, 0.5, 1, 2, 5, and 10 minutes and quenched by adding an equal volume of 95% formamide with 20 mM EDTA. Samples were denatured at 95° C. for 10 minutes and resolved on a 10% urea-PAGE gel. Gels were imaged on a Typhoon™ laser-scanner platform and quantified using ImageQuant™ TL 8.2 image analysis software (Cytiva™). The apparent first-order rate constant of non-target strand cleavage (kcleave−) was determined for each CasX:gRNA combination.

6.7/6.8 target dsDNA [2] = assay: In vitro cleavage assay of CasX 491 RNPs: competent (active) fraction; assay type: biochemical; conditions: spacer 6.7 or 6.8, v1; equimolar RNP and DNA target
Procedure: as §1
To determine the competent fraction formed by each gRNA, cleavage reactions were prepared with final RNP concentrations of 100 nM and final target concentrations of 100 nM. Reactions were carried out at 37° C. and initiated by the addition of the labeled target substrate (Table 27). Aliquots were taken at 0.5, 1, 2, 5, 10, and 30 minutes and quenched by adding an equal volume of 95% formamide with 25 mM EDTA. Samples were denatured by heating at 95° C. for 10 minutes and resolved on a 10% urea-PAGE gel. Gels were imaged and quantified as above. […] The plateau of each fit was determined and reported as the active fraction for each RNP in Table 30.

human PCSK9 locus [3] = assay: Editing (indel rate by NGS) at the PCSK9 locus in HepG2 cells transfected with CasX 491 mRNA and gRNA; assay type: cell-based; conditions: CasX 491 mRNA + v1 gRNAs, spacers 6.7 and 6.8, 28 hours
Procedure: (§2) Editing at the PCSK9 locus and consequential effects on secreted PCSK9 levels were assessed for conditions using CasX 491 mRNA co-delivered with a PCSK9-targeting gRNA with scaffold variant 174 compared to conditions where a PCSK9-targeting gRNA with scaffold variant 316 was used. 100 ng of in vitro transcribed mRNA coding for CasX 491 with a P2A and mScarlet fluorescent protein was transfected into HepG2 cells with version 1 (v1) of gRNAs 174-6.7, 174-6.8, 316-6.7, and 316-6.8 (see Table 26) using Lipofectamine™. After a media change, the following were harvested at 28 hours post-transfection: 1) transfected cells were harvested for editing assessment at the PCSK9 locus by NGS (next generation sequencing); and 2) media supernatant was harvested to measure secreted PCSK9 protein levels by ELISA. For editing analysis by NGS, amplicons were amplified from 200 ng of extracted gDNA with a set of primers targeting the PCSK9 locus and processed by NGS (described below). Secreted PCSK9 levels in the media supernatant were also analyzed using a fluorescence resonance energy transfer-based immunoassay from CISBio following the manufacturer's instructions. […]
(§3) V1 through v6 variants of chemically-modified PCSK9-targeting gRNAs (Table 26) were assessed for their effects on editing potency and consequential effects on secreted PCSK9 levels in vitro. […]

human PCSK9 locus [4] = assay: Secreted PCSK9 levels in HepG2 cells transfected with CasX 491 mRNA and gRNA; assay type: cell-based; conditions: CasX 491 mRNA + v1 gRNAs, spacers 6.7 and 6.8, 28 hours
Procedure: as §2, §3

human B2M locus = assay: Editing (indel rate by NGS) at the B2M locus in HepG2 cells treated with LNPs; assay type: cell-based; conditions: LNPs with CasX 491 mRNA + gRNA spacer 7.9 (v1), highest dose of 250 ng
Procedure: ˜50,000 HepG2 cells, cultured in DMEM/F-12 media containing 10% FBS and 1% PenStrep, were seeded per well in a 96-well plate. The next day, seeded cells were treated with varying concentrations of LNPs, which were prepared in six 2-fold serial dilutions starting at 250 ng. These LNPs were formulated to encapsulate CasX 491 mRNA and a B2M-targeting gRNA incorporating either scaffold variant 174 or 316 with spacer 7.9 (v1; see Table 26). […] Briefly, for editing assessment, amplicons were amplified from 200 ng of extracted gDNA with primers targeting the human B2M locus and processed by NGS using similar methods as described in Example 7.

B2M locus = assay: B2M knockout (HLA flow cytometry) in HEK293 cells transduced with AAV; assay type: cell-based, human; conditions: spacer 7.37, MOI 1E4, 3E3, 1E3 vg/cell, 5 days

B1: scaffold 316: chimeric gRNA scaffold, SEQ ID NO: 1746 (nucleic acid)
guide: ACUGGCGCUUCUAUCUGAUUACUCUGAGCGCCAUCACCAGCGACUAUGUCGUAGUGGGUAAAGCUCCCUCUUCGGAGGGAGCAUCAGAG
modifications: listed as RNA, chemistry not fully specified
6.7/6.8 target dsDNA [1]; spacer 6.7, v1
  cleavage rate vs scaffold 174: marginally faster cleavage
6.7/6.8 target dsDNA [1]; spacer 6.8, v1
  cleavage rate vs scaffold 174: nearly twice as quickly
6.7/6.8 target dsDNA [2]
  active fraction of CasX RNPs, higher than scaffold 174: 25-30%
Human PCSK9 locus [3]
  increase in editing rate at the PCSK9 locus over scaffold 174: ~10 percentage point
Human PCSK9 locus [4]
  reduction of PCSK9 secretion vs scaffold 174: more effective reduction of PCSK9 secretion
Human B2M locus
  editing level at the B2M locus vs scaffold 174: nearly two-fold higher
B2M locus
  editing at the B2M locus vs scaffold 235: appeared to improve editing at the B2M locus
